Numbering of substitutions follows the chain as printed. Values belong to the binder of their own block, whether it stands above or below them.
Tests used:
[1] = target: T1, Human IL-11 (human, UniProt P20809 22-199); assay: cell-based or functional assay
T1 sequence: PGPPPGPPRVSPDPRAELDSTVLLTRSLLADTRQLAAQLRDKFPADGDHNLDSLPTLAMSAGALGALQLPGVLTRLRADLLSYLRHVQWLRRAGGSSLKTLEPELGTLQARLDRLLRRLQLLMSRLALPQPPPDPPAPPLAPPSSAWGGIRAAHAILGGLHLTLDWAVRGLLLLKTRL

[2] = target: T2, Mouse IL-11 (mouse, UniProt P47873 22-199, limits assumed); assay: ELISA
T2 construct: also called murine IL-11; recombinant murine IL-11
T2 sequence (looked up): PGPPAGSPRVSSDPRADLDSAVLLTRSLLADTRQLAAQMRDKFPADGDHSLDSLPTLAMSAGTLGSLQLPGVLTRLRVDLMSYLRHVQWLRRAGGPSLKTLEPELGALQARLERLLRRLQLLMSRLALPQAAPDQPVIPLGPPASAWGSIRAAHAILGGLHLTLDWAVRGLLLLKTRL
Procedure: (§1) The soluble scFv were produced by recombinant expression in E. coli, and analysed for their ability to bind to human IL-11 and murine IL-11 by ELISA. Briefly, the respective antigen was coated to wells of an ELISA plate, the cell culture supernatant containing the respective scFv was added at a 1:2 dilution, and binding was detected.

[3] = target: T1, Human IL-11; assay: ELISA
Procedure: as §1

[4] = target: T1, Human IL-11; assay: ELISA on coated recombinant human IL-11 (100 ng/well), scFv-Fc
Procedure: The light chain shuffled anti-IL-11 antibodies were analysed to determine the EC50 for binding to human IL-11 by ELISA according to standard methods. Briefly, wells of microtiter plates were coated with recombinant human IL-11 (100 ng/well), scFv-Fc comprising the VH and VL domains of the clones were added in a dilution series and antibody binding was detected using a polyclonal antibody detection system.

- MMP2 production, Experiment 1 (human atrial fibroblasts + TGFB1) [1]: 57.5 ng/mL
- MMP2 production, Experiment 2 (human atrial fibroblasts + TGFB1) [1]: 51.3 ng/mL
- mIL11 - average signal [2]: 0.188
- hIL11 - average signal [3]: 0.309
- EC50 [4]: 0.032 µg/mL
B1: YU100-H02 (antibody)
chain: QVQLQQSGGGVVQPGRSLRLSCAASGFTFSSYGMHWVRQAPGKGLEWVAVISYDGSNKYYADSVKGRFTISRDNSKNTLYLQMNSLRAEDTAVYYCARIMGYDYGDYDVVDYWGQGTLVTVSSGSASAPKLEEGEFSEARVQSALTQPRSVSRSPGQSVTISCTGTSSDVGTYNYVSWYQQHPGKAPKLMIYDVSKRPSGVPDRFSGSKSGNTASLTISGLQAEDEADYYCCSYAGFYTWVFGGGTKLTVL

- MMP2 production, Experiment 1 (human atrial fibroblasts + TGFB1) [1]: 58.5 ng/mL
- MMP2 production, Experiment 2 (human atrial fibroblasts + TGFB1) [1]: 48.7 ng/mL
- mIL11 - average signal [2]: 0.393
- hIL11 - average signal [3]: 0.508
- EC50 [4]: 0.027 µg/mL
B2: YU100-H04 (antibody)
chain: B1 chain with Q5V, Q6E, G33A, R149A, R153G, V159I, V170I, T172V, F237S

- MMP2 production, Experiment 1 (human atrial fibroblasts + TGFB1) [1]: 52.9 ng/mL
- MMP2 production, Experiment 2 (human atrial fibroblasts + TGFB1) [1]: 39.6 ng/mL
- mIL11 - average signal [2]: 0.668
- hIL11 - average signal [3]: 0.4
- EC50 [4]: 0.028 µg/mL
B3: YU100-H09 (antibody)
chain: B1 chain with Q5V, G33A, R149A, R153G, V159I, T172G, K196N, P202S, D203N, F237S

- MMP2 production, Experiment 1 (human atrial fibroblasts + TGFB1) [1]: 52.8 ng/mL
- MMP2 production, Experiment 2 (human atrial fibroblasts + TGFB1) [1]: 39.9 ng/mL
- mIL11 - average signal [2]: 0.528
- hIL11 - average signal [3]: 0.464
- EC50 [4]: 0.018 µg/mL
B4: YU100-F01 (antibody)
chain: QVQLVQSGGGVVQPGRSLRLSCAASGFTFSSYGMHWVRQAPGKGLEWVAVISYDGSNKYYADSVKGRFTISRDNSKNTLYLQMNSLRAEDTAVYYCAKIGATDPLDYWGQGTLVTVSSGSASAPKLEEGEFSEARVQSALTQPASVSGSPGQSITISCTGTGSDVGAYDYVSWYQQHPGKAPKLMIYDVNNRPSGVSNRFSGSKSGNTASLTISGLQAEDEAEYYCSSFATSISWVFGGGTRLTVL

- MMP2 production, Experiment 1 (human atrial fibroblasts + TGFB1) [1]: 56 ng/mL
- MMP2 production, Experiment 2 (human atrial fibroblasts + TGFB1) [1]: 47.9 ng/mL
- mIL11 - average signal [2]: 0.5
- hIL11 - average signal [3]: 0.426
- EC50 [4]: 0.016 µg/mL
B5: YU100-E12 (antibody)
chain: QVQLVESGGGVVQPGRSLRLSCAASGFTFSSYGMHWVRQAPGKGLEWVAVISYDGSNKYYADSVKGRFTISRDNSKNTLYLQMNSLRAEDTAVYYCAKIGATDPLDYWGQGTLVTVSSGSASAPKLEEGEFSEARVQSALTQPASVSGSPGQSITISCTGTSSDVGGYNYVSWYQQHPGTAPKLMIYDVSNRPSGVSNRFSGSKSGNTASLTISGLQAEDEADYYCSSYTSSTTWVFGGGTKLTVL

- MMP2 production, Experiment 1 (human atrial fibroblasts + TGFB1) [1]: 53.7 ng/mL
- MMP2 production, Experiment 2 (human atrial fibroblasts + TGFB1) [1]: 45.5 ng/mL
- mIL11 - average signal [2]: 0.629
- hIL11 - average signal [3]: 0.724
- EC50 [4]: 0.015 µg/mL
B6: YU100-H11 (antibody)
chain: B5 chain with E6Q, T180K, S227C, T230A, S231G, T233Y

- MMP2 production, Experiment 1 (human atrial fibroblasts + TGFB1) [1]: 49.7 ng/mL
- MMP2 production, Experiment 2 (human atrial fibroblasts + TGFB1) [1]: 43.9 ng/mL
- mIL11 - average signal [2]: 0.622
- hIL11 - average signal [3]: 0.756
- EC50 [4]: 0.02 µg/mL
B7: YU112-B06 (antibody)
chain: B5 chain with T180K, S214F, T233S, T234S

- MMP2 production, Experiment 1 (human atrial fibroblasts + TGFB1) [1]: 59 ng/mL
- MMP2 production, Experiment 2 (human atrial fibroblasts + TGFB1) [1]: 49.7 ng/mL
- mIL11 - average signal [2]: 0.206
- hIL11 - average signal [3]: 0.203
- EC50 [4]: 0.018 µg/mL
B8: YU100-G07 (antibody)
chain: B5 chain with G167A, N169D, T180K, S190T, S227A, S231R, T233S, T234V

- MMP2 production, Experiment 1 (human atrial fibroblasts + TGFB1) [1]: 51.2 ng/mL
- MMP2 production, Experiment 2 (human atrial fibroblasts + TGFB1) [1]: 43.5 ng/mL
- mIL11 - average signal [2]: 0.303
- hIL11 - average signal [3]: 0.361
- EC50 [4]: 0.018 µg/mL
B9: YU100-F02 (antibody)
chain: EVQLVESGGGVVQPGRSLRLSCAASGFTFSSYGMHWVRQAPGKGLEWVAVISYDGSNKYYADSVKGRFTISRDNSKNTLYLQMNSLRAEDTAVYYCAKIGATDPLDYWGQGTLVTVSSGSASAPKLEEGEFSEARVQSALTQPRSVSGSPGQSVTISCTGTSSDVGGYNYVSWYQQHPGKAPKLMIYDVTKRPSGVPDRFSGSKSGNTASLTISGLQADDEADYYCCSYAGSYTWIFGGGTKLTVL

- MMP2 production, Experiment 1 (human atrial fibroblasts + TGFB1) [1]: 50.7 ng/mL
- MMP2 production, Experiment 2 (human atrial fibroblasts + TGFB1) [1]: 45 ng/mL
- mIL11 - average signal [2]: 0.612
- hIL11 - average signal [3]: 0.438
- EC50 [4]: 0.025 µg/mL
B10: YU112-A07 (antibody)
chain: B9 chain with E1Q, A61T, S162I, D219E, D223G, C227S, I236V, K242E

- MMP2 production, Experiment 1 (human atrial fibroblasts + TGFB1) [1]: 52.3 ng/mL
- MMP2 production, Experiment 2 (human atrial fibroblasts + TGFB1) [1]: 43.9 ng/mL
- mIL11 - average signal [2]: 0.328
- hIL11 - average signal [3]: 0.181
- EC50 [4]: 0.013 µg/mL
B11: YU100-H06 (antibody)
chain: B9 chain with E1Q, V136I, D219E, C227S, I236V

- MMP2 production, Experiment 1 (human atrial fibroblasts + TGFB1) [1]: 56.6 ng/mL
- MMP2 production, Experiment 2 (human atrial fibroblasts + TGFB1) [1]: 49.7 ng/mL
- mIL11 - average signal [2]: 0.31
- hIL11 - average signal [3]: 0.205
- EC50 [4]: 0.019 µg/mL
B12: YU100-G01 (antibody)
chain: B9 chain with E1Q, E6Q, G148A, G167A, I186L, T190N, G215R, D219E, I236V

- MMP2 production, Experiment 1 (human atrial fibroblasts + TGFB1) [1]: 59.9 ng/mL
- MMP2 production, Experiment 2 (human atrial fibroblasts + TGFB1) [1]: 47.5 ng/mL
- mIL11 - average signal [2]: 0.985
- hIL11 - average signal [3]: 0.802
- EC50 [4]: 0.014 µg/mL
B13: YU100-G09 (antibody)
chain: B9 chain with S162I, D219E, D223G, C227S, I236V

- MMP2 production, Experiment 1 (human atrial fibroblasts + TGFB1) [1]: 57.1 ng/mL
- MMP2 production, Experiment 2 (human atrial fibroblasts + TGFB1) [1]: 47.8 ng/mL
- mIL11 - average signal [2]: 0.461
- hIL11 - average signal [3]: 0.163
- EC50 [4]: 0.022 µg/mL
B14: YU100-H05 (antibody)
chain: QVQLVESGGGVVQPGRSLRLSCAASGFTFSSYGMHWVRQAPGKGLEWVAVISYDGSNKYYADSVKGRFTISRDNSKNTLYLQMNSLRAEDTAVYYCAKIGATDPLDYWGQGTLVTVSSGSASAPKLEEGEFSEARVQAVLTQPRSVSGSPGQSITISCTGTGSNVGGYNYVSWYQQHPGQAPKLMIYDVSKRPSGVPDRFSGSKSGNTASLTISGLQAEDEADYYCCSYAGTYTWVFGGGTKLTVL

- MMP2 production, Experiment 1 (human atrial fibroblasts + TGFB1) [1]: 57.6 ng/mL
- MMP2 production, Experiment 2 (human atrial fibroblasts + TGFB1) [1]: 53.3 ng/mL
- mIL11 - average signal [2]: 0.445
- hIL11 - average signal [3]: 0.566
- EC50 [4]: 0.017 µg/mL
B15: YU112-C03 (antibody)
chain: QVQLVESGGGVVQPGRSLRLSCAASGFTFSSYGMHWVRQAPGKGLEWVAVISYDGSNKYYADSVKGRFTISRDNSKNTLYLQMNSLRAEDTAVYYCAKGGKSYYGFDYWGQGTLVTVSSGSASAPKLEEGEFSEARVDSVMTQSPSSLSASVGDRVTITCRASQAINSYLNWYQQKPGKAPKLLIYAASSLQSGVPSRFSGSGSGTDFTLTISGLQPEDFATYYCQQSYSTPSWTFGQGTKVEIK

Source: patent US20210230266A1 (SINGAPORE HEALTH SERVICES PTE, published 2021)
